{"source": "patent US20230093708A1", "about": "“PROTEIN NANOPARTICLE DESIGN AND APPLICATION” (Duke University, priority 2020, published 2023)", "molecules": {"B1": {"name": "RLP20-ELP40: RLP-ELP block co-polypeptide, (QYPSDGRG)20-(VPG[A:G]G)40 (protein)", "chain": "QYPSDGRGQYPSDGRGQYPSDGRGQYPSDGRGQYPSDGRGQYPSDGRGQYPSDGRGQYPSDGRGQYPSDGRGQYPSDGRGQYPSDGRGQYPSDGRGQYPSDGRGQYPSDGRGQYPSDGRGQYPSDGRGQYPSDGRGQYPSDGRGQYPSDGRGQYPSDGRGGAGVPGGGVPGAGVPGGGVPGAGVPGGGVPGAGVPGGGVPGAGVPGGGVPGAGVPGGGVPGAGVPGGGVPGAGVPGGGVPGAGVPGGGVPGAGVPGGGVPGAGVPGGGVPGAGVPGGGVPGAGVPGGGVPGAGVPGGGVPGAGVPGGGVPGAGVPGGGVPGAGVPGGGVPGAGVPGGGVPGAGVPGGGVPGAGVPGGGVP"}, "B2": {"name": "RLP60-ELPV80: RLP-ELP block co-polypeptide with Val guest residue in the corona (protein)", "chain": "QYPSDGRGQYPSDGRGQYPSDGRGQYPSDGRGQYPSDGRGQYPSDGRGQYPSDGRGQYPSDGRGQYPSDGRGQYPSDGRGQYPSDGRGQYPSDGRGQYPSDGRGQYPSDGRGQYPSDGRGQYPSDGRGQYPSDGRGQYPSDGRGQYPSDGRGQYPSDGRGQYPSDGRGQYPSDGRGQYPSDGRGQYPSDGRGQYPSDGRGQYPSDGRGQYPSDGRGQYPSDGRGQYPSDGRGQYPSDGRGQYPSDGRGQYPSDGRGQYPSDGRGQYPSDGRGQYPSDGRGQYPSDGRGQYPSDGRGQYPSDGRGQYPSDGRGQYPSDGRGQYPSDGRGQYPSDGRGQYPSDGRGQYPSDGRGQYPSDGRGQYPSDGRGQYPSDGRGQYPSDGRGQYPSDGRGQYPSDGRGQYPSDGRGQYPSDGRGQYPSDGRGQYPSDGRGQYPSDGRGQYPSDGRGQYPSDGRGQYPSDGRGQYPSDGRGQYPSDGRGGVGVPGVGVPGVGVPGVGVPGVGVPGVGVPGVGVPGVGVPGVGVPGVGVPGVGVPGVGVPGVGVPGVGVPGVGVPGVGVPGVGVPGVGVPGVGVPGVGVPGVGVPGVGVPGVGVPGVGVPGVGVPGVGVPGVGVPGVGVPGVGVPGVGVPGVGVPGVGVPGVGVPGVGVPGVGVPGVGVPGVGVPGVGVPGVGVPGVGVPGVGVPGVGVPGVGVPGVGVPGVGVPGVGVPGVGVPGVGVPGVGVPGVGVPGVGVPGVGVPGVGVPGVGVPGVGVPGVGVPGVGVPGVGVPGVGVPGVGVPGVGVPGVGVPGVGVPGVGVPGVGVPGVGVPGVGVPGVGVPGVGVPGVGVPGVGVPGVGVPGVGVPGVGVPGVGVPGVGVPGVGVPGVGVPGVGVPGVGVP"}, "B3": {"name": "RLP60-ELPS80: RLP-ELP block co-polypeptide with Ser guest residue in the corona (protein)", "chain": "QYPSDGRGQYPSDGRGQYPSDGRGQYPSDGRGQYPSDGRGQYPSDGRGQYPSDGRGQYPSDGRGQYPSDGRGQYPSDGRGQYPSDGRGQYPSDGRGQYPSDGRGQYPSDGRGQYPSDGRGQYPSDGRGQYPSDGRGQYPSDGRGQYPSDGRGQYPSDGRGQYPSDGRGQYPSDGRGQYPSDGRGQYPSDGRGQYPSDGRGQYPSDGRGQYPSDGRGQYPSDGRGQYPSDGRGQYPSDGRGQYPSDGRGQYPSDGRGQYPSDGRGQYPSDGRGQYPSDGRGQYPSDGRGQYPSDGRGQYPSDGRGQYPSDGRGQYPSDGRGQYPSDGRGQYPSDGRGQYPSDGRGQYPSDGRGQYPSDGRGQYPSDGRGQYPSDGRGQYPSDGRGQYPSDGRGQYPSDGRGQYPSDGRGQYPSDGRGQYPSDGRGQYPSDGRGQYPSDGRGQYPSDGRGQYPSDGRGQYPSDGRGQYPSDGRGQYPSDGRGGSGVPGSGVPGSGVPGSGVPGSGVPGSGVPGSGVPGSGVPGSGVPGSGVPGSGVPGSGVPGSGVPGSGVPGSGVPGSGVPGSGVPGSGVPGSGVPGSGVPGSGVPGSGVPGSGVPGSGVPGSGVPGSGVPGSGVPGSGVPGSGVPGSGVPGSGVPGSGVPGSGVPGSGVPGSGVPGSGVPGSGVPGSGVPGSGVPGSGVPGSGVPGSGVPGSGVPGSGVPGSGVPGSGVPGSGVPGSGVPGSGVPGSGVPGSGVPGSGVPGSGVPGSGVPGSGVPGSGVPGSGVPGSGVPGSGVPGSGVPGSGVPGSGVPGSGVPGSGVPGSGVPGSGVPGSGVPGSGVPGSGVPGSGVPGSGVPGSGVPGSGVPGSGVPGSGVPGSGVPGSGVPGSGVPGSGVPGSGVP"}, "B4": {"name": "RLP60-ELP80: RLP-ELP block co-polypeptide, 60 core and 80 corona repeats (protein)", "chain": "QYPSDGRGQYPSDGRGQYPSDGRGQYPSDGRGQYPSDGRGQYPSDGRGQYPSDGRGQYPSDGRGQYPSDGRGQYPSDGRGQYPSDGRGQYPSDGRGQYPSDGRGQYPSDGRGQYPSDGRGQYPSDGRGQYPSDGRGQYPSDGRGQYPSDGRGQYPSDGRGQYPSDGRGQYPSDGRGQYPSDGRGQYPSDGRGQYPSDGRGQYPSDGRGQYPSDGRGQYPSDGRGQYPSDGRGQYPSDGRGQYPSDGRGQYPSDGRGQYPSDGRGQYPSDGRGQYPSDGRGQYPSDGRGQYPSDGRGQYPSDGRGQYPSDGRGQYPSDGRGQYPSDGRGQYPSDGRGQYPSDGRGQYPSDGRGQYPSDGRGQYPSDGRGQYPSDGRGQYPSDGRGQYPSDGRGQYPSDGRGQYPSDGRGQYPSDGRGQYPSDGRGQYPSDGRGQYPSDGRGQYPSDGRGQYPSDGRGQYPSDGRGQYPSDGRGQYPSDGRGGAGVPGGGVPGAGVPGGGVPGAGVPGGGVPGAGVPGGGVPGAGVPGGGVPGAGVPGGGVPGAGVPGGGVPGAGVPGGGVPGAGVPGGGVPGAGVPGGGVPGAGVPGGGVPGAGVPGGGVPGAGVPGGGVPGAGVPGGGVPGAGVPGGGVPGAGVPGGGVPGAGVPGGGVPGAGVPGGGVPGAGVPGGGVPGAGVPGGGVPGAGVPGGGVPGAGVPGGGVPGAGVPGGGVPGAGVPGGGVPGAGVPGGGVPGAGVPGGGVPGAGVPGGGVPGAGVPGGGVPGAGVPGGGVPGAGVPGGGVPGAGVPGGGVPGAGVPGGGVPGAGVPGGGVPGAGVPGGGVPGAGVPGGGVPGAGVPGGGVPGAGVPGGGVPGAGVPGGGVPGAGVPGGGVPGAGVPGGGVP"}, "B5": {"name": "[S]-80-[NHQ]-40: block co-polypeptide of two UCST blocks, (GRGDSPYS)80-(GRGDNPHQ)40 (protein)", "chain": "GRGDSPYSGRGDSPYSGRGDSPYSGRGDSPYSGRGDSPYSGRGDSPYSGRGDSPYSGRGDSPYSGRGDSPYSGRGDSPYSGRGDSPYSGRGDSPYSGRGDSPYSGRGDSPYSGRGDSPYSGRGDSPYSGRGDSPYSGRGDSPYSGRGDSPYSGRGDSPYSGRGDSPYSGRGDSPYSGRGDSPYSGRGDSPYSGRGDSPYSGRGDSPYSGRGDSPYSGRGDSPYSGRGDSPYSGRGDSPYSGRGDSPYSGRGDSPYSGRGDSPYSGRGDSPYSGRGDSPYSGRGDSPYSGRGDSPYSGRGDSPYSGRGDSPYSGRGDSPYSGRGDSPYSGRGDSPYSGRGDSPYSGRGDSPYSGRGDSPYSGRGDSPYSGRGDSPYSGRGDSPYSGRGDSPYSGRGDSPYSGRGDSPYSGRGDSPYSGRGDSPYSGRGDSPYSGRGDSPYSGRGDSPYSGRGDSPYSGRGDSPYSGRGDSPYSGRGDSPYSGRGDSPYSGRGDSPYSGRGDSPYSGRGDSPYSGRGDSPYSGRGDSPYSGRGDSPYSGRGDSPYSGRGDSPYSGRGDSPYSGRGDSPYSGRGDSPYSGRGDSPYSGRGDSPYSGRGDSPYSGRGDSPYSGRGDSPYSGRGDSPYSGRGDSPYSGRGDSPYSGRGDNPHQGRGDNPHQGRGDNPHQGRGDNPHQGRGDNPHQGRGDNPHQGRGDNPHQGRGDNPHQGRGDNPHQGRGDNPHQGRGDNPHQGRGDNPHQGRGDNPHQGRGDNPHQGRGDNPHQGRGDNPHQGRGDNPHQGRGDNPHQGRGDNPHQGRGDNPHQGRGDNPHQGRGDNPHQGRGDNPHQGRGDNPHQGRGDNPHQGRGDNPHQGRGDNPHQGRGDNPHQGRGDNPHQGRGDNPHQGRGDNPHQGRGDNPHQGRGDNPHQGRGDNPHQGRGDNPHQGRGDNPHQGRGDNPHQGRGDNPHQGRGDNPHQGRGDNPHQ"}}, "key": {"[1]": {"experiment": "Static and dynamic light scattering (SLS/DLS) of block co-polypeptides", "assay_type": "physicochemical", "conditions": "for ρ: shape factor Rg/Rh", "procedure": "Key parameters of interest are the hydrophilicity of the corona-forming block, the hydrophilicity of the core block, the overall length of the co-polypeptide and the ratio of the two blocks. Parameters of evaluation are the size, morphology, stability, and thermoresponsive behavior. All measurements were made in 140 mM NaCl, 10 mM phosphate buffer, 3 mM KCl, pH 7.4 unless otherwise specified. Size was evaluated by the hydrodynamic radios (Rh) and radius of gyration (Rg) by dynamic light scattering (DLS) and static light scattering (SLS) respectively. Rg and Rh can be combined to yield the shape factor ρ=Rg/Rh, which provides a rough indication of the morphology of the scatterer. […] For an elongated scatterer, the shape factor depends upon the aspect ratio. A combination of temperature dependent turbidity and DLS was utilized to determine the phase behavior of the block co-polypeptides. Cryogenic transmission electron microscopy (Cryo-TEM) was utilized to evaluate the morphology and provide crucial insight into the hydration of the core/corona chains. Stability of the assembled nanostructure was determined by a shift in the I1/I3 fluorescent bands of pyrene as described previously.\nStatic and dynamic light scattering measurements (SLS/DLS) were performed using an ALV/CGS-3 goniometer system (Langen, Germany). Samples for the ALV/CGS-3 goniometer system were prepared at a concentration of 10 μM in PBS and filtered through 0.45 μm Millex-GV filters into a 10 mm disposable borosilicate glass tube (Fischer). Simultaneous SLS and DLS measurements were obtained at 15° C. of the ELP for angles between 30°-150° at 5° increments, with each angle consisting of 3 runs for 15 s. SLS experiments were only conducted for self-assembling block co-polypeptides, since the molecular weight of a single block co-polypeptide chain is already known, and the Rg of a single chain is likely near or below the detection limit of the SLS instrument. The differential refractive index (dn/dc) was determined by measuring the refractive index at different concentrations using an Abbemat 500 refractometer (Anton Paar, Graz, Austria). DLS data were analyzed by fitting the autocorrelation function with a cumulant fit, using the built-in ALV software. Hydrodynamic radius (Rh) was plotted against angle and extrapolated to zero. SLS data were analyzed by partial Zimm plots using ALVSTAT software in order to determine the Rg and molecular weight (MW)."}, "[2]": {"experiment": "Cryo-TEM micelle core size, inter-core spacing and aspect ratio", "assay_type": "physicochemical", "procedure": "Using the data from FIG. 18, particularly the longest straight line of an individual particle and a corresponding perpendicular measurement were made to describe the aspect ratio of particles observed.\nCryo-TEM experiments were performed at Duke University's Shared Materials Instrumentation Facility (Durham, N.C.). Lacey holey carbon grids (Ted Pella, Redding, Calif.) were glow discharged in a PELCO EasiGlow Cleaning System (Ted Pella, Redding, Calif.). A 3 μL drop (10 μM RLPn-ELP80) was deposited onto the grid, blotted for 3 s with an offset of −3 mm, and vitrified in liquid ethane using the Vitrobot Mark III (FEI, Eindhoven, Netherlands). Prior to vitrification, the sample chamber was maintained at 15° C. and 100% relative humidity to prevent sample evaporation. Grids were transferred to a Gatan 626 cryoholder (Gatan, Pleasanton, Calif.) and imaged with a FEI Tecnai G2 Twin TEM (FEI, Eindhoven, Netherlands), operating at 80 keV. Feature sizes and spacing distances were measured in ImageJ by manual measurement of at least 25 particles."}}, "data": [{"molecule": "B1", "values": [{"measurement": "hydrodynamic radius (Rh)", "setting": "[1]", "value": 5.3, "unit": "nm"}, {"measurement": "Rh (nm)", "setting": "[1]; Table 3, 10 μM in PBS, 15 °C", "value": 5.3, "unit": "nm"}]}, {"molecule": "B2", "values": [{"measurement": "Nagg", "setting": "[1]; Table 5, 10 μM in PBS, 15 °C", "value": 565}, {"measurement": "Rg(nm)", "setting": "[1]; Table 5, 10 μM in PBS, 15 °C", "value": 41.3, "unit": "nm"}, {"measurement": "Rh (nm)", "setting": "[1]; Table 5, 10 μM in PBS, 15 °C", "value": 39.4, "unit": "nm"}, {"measurement": "ρ", "setting": "[1]; Table 5", "value": 1.0}]}, {"molecule": "B3", "values": [{"measurement": "Nagg", "setting": "[1]; Table 5, 10 μM in PBS, 15 °C", "value": 244}, {"measurement": "Rg(nm)", "setting": "[1]; Table 5, 10 μM in PBS, 15 °C", "value": 27.5, "unit": "nm"}, {"measurement": "Rh (nm)", "setting": "[1]; Table 5, 10 μM in PBS, 15 °C", "value": 43.5, "unit": "nm"}, {"measurement": "ρ", "setting": "[1]; Table 5", "value": 0.6}]}, {"molecule": "B4", "values": [{"measurement": "core radius (cryo-TEM)", "setting": "[2]", "value": "~17.5", "unit": "nm"}, {"measurement": "spacing between particle cores (cryo-TEM)", "setting": "[2]", "value": 29.5, "unit": "nm"}, {"measurement": "Spacing (nm)", "setting": "[2]; Table 2, inter-core spacing, mean ± standard deviation", "value": "28.9 ± 5.1", "unit": "nm"}, {"measurement": "Core radius (nm)", "setting": "[2]; Table 2, mean ± standard deviation, 10 μM in 140 mM PBS", "value": "17.5 ± 2.7", "unit": "nm"}, {"measurement": "Nagg", "setting": "[1]; Table 1, 10 μM in PBS, 15 °C", "value": 231}, {"measurement": "Rg(nm)", "setting": "[1]; Table 1, 10 μM in PBS, 15 °C", "value": 23.8, "unit": "nm"}, {"measurement": "Rh (nm)", "setting": "[1]; Table 1, 10 μM in PBS, 15 °C", "value": 36.7, "unit": "nm"}, {"measurement": "ρ", "setting": "[1]; Table 1", "value": 0.65}]}, {"molecule": "B5", "values": [{"measurement": "Rh (nm)", "setting": "[1]; Table 9, UCST-UCST block co-polypeptides", "value": 7.0, "unit": "nm"}]}]}
